Measured values taken from patent publication US20250099579A1 (MARENGO THERAPEUTICS, published 2025).

How the values were obtained:
cynomolgus IL2Ra = biological target: T1, cynomolgus IL2Ra (cynomolgus, UniProt H6WS54 22-213); test: SPR (Biacore T200), BKM0186 captured via anti-human Fc on CM5 chip, receptor as analyte, steady state model
T1 construct: also called Cyno IL-2Rα
T1 sequence: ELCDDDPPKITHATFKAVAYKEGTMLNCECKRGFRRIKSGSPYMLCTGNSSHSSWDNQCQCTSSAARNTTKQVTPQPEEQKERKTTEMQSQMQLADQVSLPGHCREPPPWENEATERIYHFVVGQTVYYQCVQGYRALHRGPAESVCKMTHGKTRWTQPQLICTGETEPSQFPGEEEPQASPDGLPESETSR
Experimental: (§1) All interactions between bispecifics and relevant receptors were analyzed by Surface Plasmon Resonance (SPR) on a Biacore T200 instrument.
(§2) BKM0186 at 2 μg/mL was immobilized on a Series S CM5 chip via human Fe antibody to 80 RU. Human IL2Ra and cynomolgus IL2Ra were diluted to 500 nM, human IL2R beta-gamma and cynomolgus IL2R beta-gamma were diluted to 125 nM, and human IL2R trimeric complex was diluted to 50 nM and then serially diluted two-fold in 1×HBS-EP+ buffer for a total of 10 concentrations. Multi cycle kinetics was run where the chip is regenerated with 3 M Magnesium Chloride between each cycle followed by a new injection of BKM0186. An association time of 120 seconds and a dissociation time of 150 seconds for human and cyno IL2Ra, 300 seconds for human and cyno IL2R beta-gamma, and 900 seconds for the human IL2R trimeric complex was done at 30 uL/min. This assay was run in 1×HBS-EP+ Buffer pH 7.4 and 25 C. Sensorgrams were corrected by double reference subtraction using the reference flow cell not treated with BKM0186 and a blank cycle of buffer alone. BIAevaluation software was used for data analysis and the data were fit using a 1:1 Langmuir binding model for calculation of the KD value (Koff/Kon). Due to faster off rates observed for human and cyno IL2Ra binding, the data were fit using a steady state model where equilibrium binding response is analyzed.

Human IL2Ra = biological target: T2, Human IL2Ra (human, UniProt P01589 22-213, limits assumed); test: as above
T2 construct: also called Human IL-2Rα; CD25
T2 sequence (looked up): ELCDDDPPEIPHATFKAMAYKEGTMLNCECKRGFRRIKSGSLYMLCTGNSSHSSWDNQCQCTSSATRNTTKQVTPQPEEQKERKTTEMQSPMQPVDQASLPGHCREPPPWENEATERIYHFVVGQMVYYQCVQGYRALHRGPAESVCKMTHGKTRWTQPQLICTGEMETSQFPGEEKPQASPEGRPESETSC
Experimental: as §1, §2

[1] = biological target: T3, cynomolgus IL2R beta-gamma (cynomolgus); test: SPR (Biacore T200), BKM0186 captured via anti-human Fc on CM5 chip, receptor as analyte, 1:1 Langmuir model
T3 construct: also called Cyno IL-2Rβγ
Experimental: as §1, §2

human IL2R beta-gamma = biological target: T4, human IL2R beta-gamma (human, UniProt P14784 27-239; P31785 23-262); test: as above
T4 construct: Soluble heterodimer used as analyte; also called Human IL-2Rβγ; IL-2Rβγ heterodimer
T4 sequence (looked up) 1: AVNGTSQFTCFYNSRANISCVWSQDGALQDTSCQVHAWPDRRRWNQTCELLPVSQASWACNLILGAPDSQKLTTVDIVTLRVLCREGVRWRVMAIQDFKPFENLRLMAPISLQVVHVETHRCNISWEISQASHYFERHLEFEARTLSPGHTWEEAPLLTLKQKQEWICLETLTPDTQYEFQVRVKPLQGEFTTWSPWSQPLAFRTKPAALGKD
T4 sequence (looked up) 2: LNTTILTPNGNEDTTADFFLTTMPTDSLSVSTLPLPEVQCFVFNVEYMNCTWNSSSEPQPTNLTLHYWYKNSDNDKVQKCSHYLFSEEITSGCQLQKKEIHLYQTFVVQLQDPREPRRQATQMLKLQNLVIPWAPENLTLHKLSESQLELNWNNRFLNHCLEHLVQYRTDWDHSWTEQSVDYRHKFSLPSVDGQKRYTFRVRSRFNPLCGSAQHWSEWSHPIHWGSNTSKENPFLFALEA
Experimental: as §1, §2

Vβ6 TCR on human T cells [2] = biological target: T5, Vβ6 TCR on human T cells (human); test: flow cytometry on sorted, activated TCRVβ6-5 positive CD25 hi human T cells (cells carry both Vβ6 TCR and CD25; co-operative binding)
T5 construct: whole, on cells; Polyclonal T cells: CDR3 and the paired alpha chains vary; also called Vβ6 T cells; TCRVβ6-5
T5 sequence (A0A0K0K1A5 22-114): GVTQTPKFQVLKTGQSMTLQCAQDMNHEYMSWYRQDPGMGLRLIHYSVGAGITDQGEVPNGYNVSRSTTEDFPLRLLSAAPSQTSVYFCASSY
Text: Pan T-cells were isolated from PBMC's via negative selection on the autoMACS. T-cells were stained for TCRVβ6-5 and sorted on the Sony SH800 cell sorter into cell culture media. Sorted TCRVβ6-5 T-cells and non-sorted pan T-cells were activated and expanded using anti-CD3/CD28 beads followed by IL-2 culture. Portion of activated T-cells were allowed to rest for 3-days in serum-free media. Anti-CD25 FACS staining to confirm CD25 upregulation (from activation) and downmodulation (from resting). T-cells that represents TCRVβ6-5(pos) CD25(hi); TCRVβ6-5(pos) CD25(low); TCRVβ6-5(neg) CD25(hi); TCRVβ6-5(neg) CD25(low) are checked for BKM0186 construct binding.
This avidity effect confirms that BKM0186 engages both Vβ6 and IL-2R via a cis binding mode.

Vβ6 TCR on human T cells [3] = biological target: T5, Vβ6 TCR on human T cells; test: cell-based or functional assay
[4] = biological target: T6, human IL2R trimeric complex (human, UniProt P01589 22-213; P14784 27-239; P31785 23-262); test: SPR (Biacore T200), BKM0186 captured via anti-human Fc on CM5 chip, receptor complex as analyte, 1:1 Langmuir model
T6 construct: also called Human IL-2Rαβγ
T6 sequence (looked up) 1: T2 sequence (looked up)
T6 sequence (looked up) 2: T4 sequence (looked up) 1
T6 sequence (looked up) 3: T4 sequence (looked up) 2
Experimental: as §1, §2

Human Vβ6 TCR = biological target: T7, Human Vβ6 TCR (human); test: SPR (Biacore T200), BKM0186 captured via anti-human Fc on CM5 chip (80 RU), TCR as analyte, multi cycle kinetics, 1:1 Langmuir model, 25 C
T7 construct: The method text calls it Human Vβ6 TCR; also called Human TCRVβ
Experimental: as §1
(§3) BKM0186 at 2 μg/mL was immobilized on a Series S CM5 chip via human Fe antibody to 80 RU. Human Vβ6 TCR and cynomolgus Vβ6 TCR were diluted to 250 nM and then serially diluted two-fold in 1×HBS-EP+ buffer for a total of 10 concentrations. Multi cycle kinetics was done with an association time of 120 seconds and a dissociation time of 600 seconds, for human Vβ6 TCR and 300 seconds for cynomolgus Vβ6 TCR at 30 uL/min. This assay was run in 1×HBS-EP+ Buffer pH 7.4 at 25 C. Sensorgrams were corrected by reference subtraction using the reference flow cell not treated with BKM0186. BIAevaluation software was used for data analysis and the data were fit using a 1:1 Langmuir binding model for calculation of the KD value (Koff/Kₒₙ).

cynomolgus Vβ6 TCR = biological target: T8, cynomolgus Vβ6 TCR (cynomolgus); test: as above
T8 construct: also called Cyno TCRVβ
Experimental: as §1, §3

Kd (cynomolgus IL2Ra): 48 nM
Kd (Human IL2Ra): 45 nM
Kd [1]: 3.3 nM
Kd (human IL2R beta-gamma): 3.8 nM
EC50 (Vβ6 TCR on human T cells [2]): 0.5 nM
EC50 of proliferation of Vβ6 T cells as a proportion of total CD4+ T cells (human PBMCs, 5 days) (Vβ6 TCR on human T cells [3]): 12 nM
EC50 of proliferation of Vβ6 T cells as a proportion of total CD8+ T cells (human PBMCs, 5 days) (Vβ6 TCR on human T cells [3]): 6 nM
Kd [4]: 0.1 nM
Kd (Human Vβ6 TCR): 1.7 nM
Kd (cynomolgus Vβ6 TCR): 4.9 nM
B1: BKM0186 (bispecific antibody, human IgG1, kappa, N297A)
heavy: QVQLVQSGAEVKKPGSSVKVSCKASGHDFRLTYIHWVRQAPGQGLEWMGRVSAGSGNVKYNEKFKGRVTITADTSTSTAYMELSSLRSEDTAVYYCAVSYYSYDVLDYWGQGTTVTVSSASTKGPSVFPLAPSSKSTSGGTAALGCLVKDYFPEPVTVSWNSGALTSGVHTFPAVLQSSGLYSLSSVVTVPSSSLGTQTYICNVNHKPSNTKVDKRVEPKSCDKTHTCPPCPAPELLGGPSVFLFPPKPKDTLMISRTPEVTCVVVDVSHEDPEVKFNWYVDGVEVHNAKTKPREEQYASTYRVVSVLTVLHQDWLNGKEYKCKVSNKALPAPIEKTISKAKGQPREPQVCTLPPSREEMTKNQVSLSCAVKGFYPSDIAVEWESNGQPENNYKTTPPVLDSDGSFFLVSKLTVDKSRWQQGNVFSCSVMHEALHNHYTQKSLSLSPGK
chain: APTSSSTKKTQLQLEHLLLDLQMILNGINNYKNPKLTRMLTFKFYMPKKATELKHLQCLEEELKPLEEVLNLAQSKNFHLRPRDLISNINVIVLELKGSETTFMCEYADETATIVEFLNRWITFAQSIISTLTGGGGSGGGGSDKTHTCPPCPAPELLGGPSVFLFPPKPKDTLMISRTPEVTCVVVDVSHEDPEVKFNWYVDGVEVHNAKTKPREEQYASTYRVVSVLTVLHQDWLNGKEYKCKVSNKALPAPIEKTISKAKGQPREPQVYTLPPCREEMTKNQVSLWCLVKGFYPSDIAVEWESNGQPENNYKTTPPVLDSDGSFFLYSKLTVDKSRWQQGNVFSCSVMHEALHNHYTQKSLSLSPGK
light: DIQMTQSPSFLSASVGDRVTITCKASQNVADRVVWHQQKPGKAPKALIYSSSHRYKGVPSRFSGSGSGTEFTLTISSLQPEDFATYFCQQFKSYPLTFGQGTKLEIKRTVAAPSVFIFPPSDEQLKSGTASVVCLLNNFYPREAKVQWKVDNALQSGNSQESVTEQDSKDSTYSLSSTLTLSKADYEKHKVYACEVTHQGLSSPVTKSFNRGEC
notes: also called TCRVβ/IL-2 (C125A) bispecific; IL2xTCRVβ
